Assay: soluble on expression in E. coli; label from the status in PepcDB or PDB records

Sequence | soluble on expression in E. coli
MSTVSGLKRPQSSEKNHRDRVFVRATRGKVQKVVREQYLRNDIPCQSRACPLCRSKLPKDSRGNVLEPILSEKPMFLEKFGHHYLIPDSNIFYHCIDALEHPNNFFDVIILQTVFSEISSKSIPLYNRMKRLCQEKTKRFTPFSNEFFVDTFVERLDDESANDRNDRAIRNAASWFASHLASLGIKIVLLTDDRENARLAAEQGIQVSTLKDYVQYLPDSEILLDMVSAIADAIASKEQVESGTKNVYELHWSMSRLLACIKNGEVHKGLINISTYNYLEGSVVVPGYNKPVLVSGRENLNRAVQGDIVCIQILPQDQWKTEAEEIADDDEDVVVSTAAEPDSARINDLELITKRNAHPTAKVVGILKRNWRPYVGHVDNATIAQSKGGSQQTVLLTPMDRRVPKIRFRTRQAPRLVGRRIVVAIDLWDASSRYPEGHFVRDLGEMETKEAETEALLLEYDVQHRPFPKAVLDCLPEEGHNWKVPADKTHPLWKNRKDFRDKLICSIDPPGCQDIDDALHACVLPNGNYEVGVHIADVTHFVKPNTSMDSEAASRGTTVYLVDKRIDMLPMLLGTDLCSLRPYVERFAFSCIWEMDENANIIKVHFTKSVIASKEAFSYADAQARIDDQKMQDPLTQGMRVLLKLSKILKQKRMDEGALNLASPEVRIQTDNETSDPMDVEIKQLLETNSLVEEFMLLANISVAQKIYDAFPQTAVLRRHAAPPLTNFDSLQDILRVCKGMHLKCDTSKSLAKSLDECVDPKEPYFNTLLRILTTRCMLSAEYFCSGTFAPPDFRHYGLASPIYTHFTSPIRRYADVLAHRQLAAAIDYETINPSLSDKSRLIEICNGINYRHRMAQMAGRASIEYYVGQALKGGVAEEDAYVIKVFKNGFVVFIARFGLEGIVYTKSLSSVLEPNVEYVEDEYKLNIEIRDQPKPQTVQIQMFQQVRVRVTTVRDEHSGKQKVQITLVY | soluble
MGSDKIHHHHHHMSSHLAHGMGTEPVEPDWPPLTEAEVADVVGPSRVVWRSPRPLSAAAVVERGGRRLFVKRHHLSVRTPEGLAEEHAFLRHLRERGAPVVEVLDVATRQEWVYEVHSAGLGTDLYRDDLSWSPFRSSTHARAAGAALARLHLAADGFEAPRRIPQPLVASFTIFAADDPGTALERYVAERPALAGALADHPWRADTRRVLLPLFERLAPHLPLLEPLWTHNDWHASNLLWDASGEVSTVLDFGMSDRTTAVHDLATAIERNAVQWLQPGFPVREQDVDALLDGYQSVRPLTVSESAALPELLPLVHAEFALSEMGYFHGITGSAENTRLAYAYLVDHAEWFTGDAGSHLVDRVRHRAAAAPKPPPAGRPLSDASS | not soluble
MSSLCLQRLQEERKKWRKDHPFGFYAKPVKKADGSMDLQKWEAGIPGKEGTNWAGGVYPITVEYPNEYPSKPPKVKFPAGFYHPNVYPSGTICLSILNEDQDWRPAITLKQIVLGVQDLLDSPNPNSPAQEPAWRSFSRNKAEYDKKVLLQAKQYSK | soluble
MVRSFIYEPFQIPSGSMMPTLLIGDFILVEKFAYGIKDPIYQKTLIETGHPKRGDIVVFKYPEDPKLDYIKRAVGLPGDKVTYDPVSKELTIQPGCSSGQACENALPVTYSNVEPSDFVQTFSRRNGGEATSGFFEVPKNETKENGIRLSERKETLGDVTHRILTVPIAQDQVGMYYQQPGQQLATWIVPPGQYFMMGDNRDNSADSRYWGFVPEANLVGRATAIWMSFDKQEGEWPTGLRLSRIGGIH | soluble
MSKNLLIELGLEELPAYVVTPSEKQLGERLATFLTENRLSFEDIQTFSTPRRLAVRVSGLADQQTDLTEDFKGPAKKIALDADGNFSKAAQGFVRGKGLTTDAIEFREVKGEEYVYVTKHEAGKPAKEVLLGVTEVLSAMTFPVSMHWANNSFEYIRPVHTLTVLLNDEALELDFLDIHSGRVSRGHRFLGTETTITSADSYEADLRSQFVIADAKERQEMIVEQIKTLEVEQGVQVDIDEDLLNEVLNLVEFPTAFMGSFEAKYLDVPEEVLVTSMKNHQRYFVVRDQAGHLMPNFVSVRNGNDQAIENVIKGNEKVLVARLEDGEFFWREDQKLQIADLVAKLTNVTFHEKIGSLAEHMDRTRVIAASLAKEANLSAEEVTAVDRAAQIYKFDLLTGMVGEFDELQGIMGEKYALLAGEDAAVATAIREHYLPDAAGGALPETKVGAVLALAAKLDTLLSFFSVGLIPSGSNDPYALRRATQGIVRILDHFGWRIPMDKLVDSLYDLSFDSLTYANKADVMNFIRARVDKMMGKAAPKDIREAILASSTFV | not soluble
MAGDPMQKVKSDILTHRGSHFDLGVQTAQWMQHTPLLKNREQEWKKRMPRFDIHIKETYDIFQTYAPQIWEEIRGMQEVLNLPTRQMILNFAHYRFTPLKNSGCTVYLGNDYMVRNYDYHPATYDGRYLLFQPNDGGLAQIGPTSRVTGRMDGMNEAGLAMGYNFMHRKHPGDGFVCYMIGRLVLQYCKDVPEAIKLLKEIPHRSSFSYIVMDKYLNHAIIEVTPRSIDVRYDHTCTNHFKLLTHENRNYTKESTERLDRLIKQTPAQLGKMDAFKLFNNPEFEIYSKLFKSWSGTIHTSMYEPQSLTAHITLGENKAPVEIDFQQWLNGESLNINELTGQIDTELTFATYLEHHHHHH | not soluble
MVKLTSIAAGVAAIAATASATTTLAQSDERVNLVELGVYVSD | not soluble
MILINVKYQVRPEYVDTFLDEVKWFTDACRAEEGNLFFDWFKNPEKDNEFILVEGFKDGSDVAHVQSEAFQRACEEIPRYLLETPKIINVSIPGKTEWDTMAEFVVE | not soluble
CGVFGIWGHEEAPQITYYGLHSLQHRGQEGAGIVATDGEKLTAHKGQGLITEVFQNGELSKVKGKGAIGHVRYATAGGGGYENVQPLLFRSQNNGSLALAHNGNLVNATQLKQQLENQGSIFQTSSDTEVLAHLIKRSGHFTLKDQIKNSLSMLKGAYAFLIMTETEMIVALDPNGLRPLSIGMMGDAYVVASETCAFDVVGATYLREVEPGEMLIINDEGMKSERFSMNINRSICSMEYIYFSRPDSNIDGINVHSARKNLGKMLAQESAVEADVVTGVPDSSISAAIGYAEATGIPYELGLIKNRYVGRTFIQPSQALREQGVRMKLSAVRGVVEGKRVVMVDDSIVRGTTSRRIVTMLREAGATEVHVKISSPPIAHPCFYGIDTSTHEELIASSHSVEEIRQEIGADTLSFLSVEGLLKGIGRKYDDSNCGQCLACFTGKYPTEIYQDTVLPHVK | soluble
MVVSSKMDIFNELESQVRSYSRSFPTIFTKSKGYKLWDVDGKEYIDFFSGAGALNYGHNDDKMKQVLIDYLLEDGIIHSLDMGTSAKVNFLKHFNKIILEPRDLNYKIMFPGPTGTNSVESALKIARKVTGRTNIISFSNAFHGMSLGSLSITSNHFKRKGAGVPLNNSIIMPYENYLDSLNSLSYLEKVLGDSGSGVALPAAIILETVQGEGGLNTASSQWLKGIDRLCKKYNILLIVDDIQAGCGRTGTFFSFEPASIKPDIICLSKSISGIGLPMAITLIKPEYDKWEPGEHNGTFRGNNLAFLAATEALSYWKDIEFINALKWKSEKITSFLNEICLKYPQLQGEVRGRGFMQGIACNTFGIAKKICSVAFENGLIIETSGPNDEVIKLLPSLTIDLEGLSKGLEMLEDSISTILKEVTH | not soluble
MGSDKIHHHHHHAEAPLRPDQAAFRDLYREMVETDTSITTGSCTLLADRIEARLRGAGFADGQIHRFAVPEFPKEGGIVAILPGTSAKARPILLLGHLDVVVAKREDWTRDPYRLIEEGGYFYGRGVADMKAMDAIWVDMLMRFRKEGRKPRRTIKLALTCGEETSTAFNGAKWLAENRRDLIDAEFALNEGGSGRTDKPLEEGGRVVLQTIHVGEKTPVNYRVEATNPGGHSSMPVRDNAIYELSDALVRLRDYEFPVMLNDTTRAFFAKAGAARGDAMGKAMVAVSADPADKAAVALLDTDRSFHSMLRTTCVATLLDGGHANNALPQRAGANVNCRIFPGVTAEEVRGTLETVVADPRMTVVRTDNRGPDAKAPPLDPKIVGPAEKLVAKYYPGVPMVPMMSTGATDGVFLGAVGIPSYGPPGLFGNPDGNGVHGLNERISVQAVYAGRDLLTELVTAYAF | not soluble
MSLMFERSPDDPLPLVYACSGCSNVAQLANDLALRLDRARLAEMSCIAGVGGDVPLLVRRARSGRPILALDGCPLHCVKGCLARHEVVPTLHLTLSEHGLKKRYGEDCEAQDAERLFVELERLLTPGGKRRCEEGHHHHHH | soluble

From the DeepSol protein solubility set
